Test results reported in patent US12303551B2, “Cellular immunotherapy compositions and uses thereof” (CERO THERPEUTICS HOLDINGS, INC., priority 2018, dated 2025).

System: SCC152 cells
Assay: Elimination of GFP-expressing SCC152 target cells over time (quantification and time lapse imaging)
Type: cell-based
Settings: 96-well co-culture, CD8+/E7 TCR + CD4+/CER + SCC152 1:1:1, compared to control
Method: Target SCC152 cells were co-cultured with CD8+ T cells transduced with HPV E7 TCR+CD4+ T cells transduced with a selected CER, or controls (CD8+ T cell transduced with HPV E7 TCR+CD4+ transduced control) at a 1:1:1 ratio. The number of target cells were quantified using imaging software. 0 hours, 24 hours, and 48 hours are shown from left to right.
FIG. 21 is time lapse imaging from 96-well co-culture experiments comprising CD8+ T cells transduced with HPV16 E7 TCR+CD4+ T cells transduced with CER5, CER17 or CER19 incubated with SCC152 target cells at a 1:1:1 ratio. SCC152 HPV+ target cells were quantified using automated cell counting software.
FIG. 22 is time lapse imaging from 96-well co-culture experiments comprising CD8+ T cells transduced with HPV16 E7 TCR+CD4+ T cells transduced with CER21, CER23 or CER26 incubated with SCC152 target cells at a 1:1:1 ratio. SCC152 HPV+ target cells were quantified using automated cell counting software.
FIG. 23 is time lapse imaging from 96-well co-culture experiments comprising CD8+ T cells transduced with HPV16 E7 TCR+CD4+ T cells transduced with CER103b, CER104 or CER105 incubated with SCC152 target cells at a 1:1:1 ratio. SCC152 HPV+ target cells were quantified using automated cell counting software.
FIG. 24 is time lapse imaging from 96-well co-culture experiments comprising CD8+ T cells transduced with HPV16 E7 TCR+CD4+ T cells transduced with CER106, CER116 or CER27 incubated with SCC152 target cells at a 1:1:1 ratio. SCC152 HPV+ target cells were quantified using automated cell counting software.
FIG. 57 is a bar graph showing quantification of loss of SCC152 HPV16+ target cells over time during co-culture assays. SCC152 cells were transduced with green fluorescent protein (GFP) and co-cultured with CD8+ T cells transduced with HPV16 E7 TCR and CD4+ T cells transduced with a selected CER (CER29, CER30, CER110, CER112, CER113, CER114, CER116, or CER117) or a CD4+ T cell control at a 1:1:1 ratio (CD8:CD4:target cell). The number of target cells was quantified at various time points during co-culture (0 hrs, 12 hrs, 24 hrs, and 36 hrs) using fluorescence microscopy and imaging software.
FIG. 58 are fluorescence micrograph images of the co-culture assay described in FIG. 57, showing clearance of the SCC152 cells (pink) as co-culture with CD8+ T cells transduced with HPV16 E7 TCR and CD4+ T cells transduced with a selected CER (columns from left to right: control, CER29, CER30, CER110, or CER112) progresses (rows from top to bottom: 0 hrs, 12 hrs, 24 hrs, and 36 hrs).
FIG. 59 are fluorescence micrograph images of the co-culture assay described in FIG. 57, showing clearance of the SCC152 cells (pink) as co-culture with CD8+ T cells transduced with HPV16 E7 TCR and CD4+ T cells transduced with a selected CER (columns from left to right: control, CER113, CER114, CER116, or CER117) progresses (rows from top to bottom: 0 hrs, 12 hrs, 24 hrs, and 36 hrs).
Elimination of target SCC152 cells was also detected by quantifying green fluorescent protein expression by SCC152 cells over time (0 hr, 24 hr, 48 hr) during co-incubation with CD8+ T cells transduced with HPV16 E7 specific TCR+ CD4 T cells transduced with selected CER (see, FIG. 20).
Elimination of target SCC152 cells was also detected by quantifying green fluorescent protein expression by SCC152 cells over time (0 hr, 12 hr, 24 hr, 36 hr) during co-incubation with CD8+ T cells transduced with HPV16 E7 specific TCR+ CD4+ T cells transduced with selected CER (CER29, CER30, CER110, CER112, CER113, CER114, CER116, or CER117) (see, FIG. 57).

Molecule | number of SCC152 cells in time lapse imaging
CER5: Chimeric engulfment receptor: Tim4 binding, Tim4 transmembrane, TLR4 signaling; SEQ ID NO: 94 (protein, CER5, amino acids 1-22 are signal peptide) MSKGLLLLWLVTELWWLYLTPAASEDTIIGFLGQPVTLPCHYLSWSQSRNSMCWGKGSCPNSKCNAELLRTDGTRIISRKSTKYTLLGKVQFGEVSLTISNTNRGDSGVYCCRIEVPGWFNDVKKNVRLELRRATTTKKPTTTTRPTTTPYVTTTTPELLPTTVMTTSVLPTTTPPQTLATTAFSTAVTTCPSTTPGSFSQETTKGSAFTTESETLPASNHSQRSMMTISTDIAVLRPTGSNPGILPSTSQLTTQKTTLTTSESLQKTTKSHQINSRQTILIIACCVGFVLMVLLFLAFLKFYFHLMLLAGCIKYGRGENIYDAFVIYSSQDEDWVRNELVKNLEEGVPPFQLCLHYRDFIPGVAIAANIIHEGFHKSRKVIVVVSQHFIQSRWCIFEYEIAQTWQFLSSRAGIIFIVLQKVEKTLLRQQVELYRLLSRNTYLEWEDSVLGRHIFWRRLRKALLDGKSWNPEGTVGTGCNWQEATSI | decreasing in numbers over time
CER19: Chimeric engulfment receptor: Tim4 binding, Tim4 transmembrane, TLR5 signaling; SEQ ID NO: 95 (protein, CER19, amino acids 1-22 are signal peptide) MSKGLLLLWLVTELWWLYLTPAASEDTIIGFLGQPVTLPCHYLSWSQSRNSMCWGKGSCPNSKCNAELLRTDGTRIISRKSTKYTLLGKVQFGEVSLTISNTNRGDSGVYCCRIEVPGWFNDVKKNVRLELRRATTTKKPTTTTRPTTTPYVTTTTPELLPTTVMTTSVLPTTTPPQTLATTAFSTAVTTCPSTTPGSFSQETTKGSAFTTESETLPASNHSQRSMMTISTDIAVLRPTGSNPGILPSTSQLTTQKTTLTTSESLQKTTKSHQINSRQTILIIACCVGFVLMVLLFLAFLTKFRGFCFICYKTAQRLVFKDHPQGTEPDMYKYDAYLCFSSKDFTWVQNALLKHLDTQYSDQNRFNLCFEERDFVPGENRIANIQDAIWNSRKIVCLVSRHFLRDGWCLEAFSYAQGRCLSDLNSALIMVVVGSLSQYQLMKHQSIRGFVQKQQYLRWPEDFQDVGWFLHKLSQQILKKEKEKKKDNNIPLQTVATIS | decreasing in numbers over time
CER17: Chimeric engulfment receptor: Tim4 binding, Tim4 transmembrane, TLR3 signaling; SEQ ID NO: 112 (protein, CER17, amino acids 1-22 are signal peptide) MSKGLLLLWLVTELWWLYLTPAASEDTIIGFLGQPVTLPCHYLSWSQSRNSMCWGKGSCPNSKCNAELLRTDGTRIISRKSTKYTLLGKVQFGEVSLTISNTNRGDSGVYCCRIEVPGWFNDVKKNVRLELRRATTTKKPTTTTRPTTTPYVTTTTPELLPTTVMTTSVLPTTTPPQTLATTAFSTAVTTCPSTTPGSFSQETTKGSAFTTESETLPASNHSQRSMMTISTDIAVLRPTGSNPGILPSTSQLTTQKTTLTTSESLQKTTKSHQINSRQTILIIACCVGFVLMVLLFLAFLEGWRISFYWNVSVHRVLGFKEIDRQTEQFEYAAYIIHAYKDKDWVWEHFSSMEKEDQSLKFCLEERDFEAGVFELEAIVNSIKRSRKIIFVITHHLLKDPLCKRFKVHHAVQQAIEQNLDSIILVFLEEIPDYKLNHALCLRRGMFKSHCILNWPVQKERIGAFRHKLQVALGSKNSVH | decreasing in numbers over time
